# Experimental data reported in PMC11096365, “Cryo-EM structures of the human Elongator complex at work” (Nature Communications, 2024).
# T1: human ELP123 (Homo sapiens, UniProt Q9H9T3)
# T1 construct: gene ELP3; recombinant ELP123 subcomplex (1:1:1, two lobes), codon-optimized ORFs, C-terminal Twin-Strep-Tag on ELP3, insect cells (SuperSf9-3); ELP1 148 kDa, ELP2 93 kDa, ELP3-TST 65 kDa; with Elongator complex protein 1; Elongator complex protein 2
# T1 sequence (Q9H9T3 1-547): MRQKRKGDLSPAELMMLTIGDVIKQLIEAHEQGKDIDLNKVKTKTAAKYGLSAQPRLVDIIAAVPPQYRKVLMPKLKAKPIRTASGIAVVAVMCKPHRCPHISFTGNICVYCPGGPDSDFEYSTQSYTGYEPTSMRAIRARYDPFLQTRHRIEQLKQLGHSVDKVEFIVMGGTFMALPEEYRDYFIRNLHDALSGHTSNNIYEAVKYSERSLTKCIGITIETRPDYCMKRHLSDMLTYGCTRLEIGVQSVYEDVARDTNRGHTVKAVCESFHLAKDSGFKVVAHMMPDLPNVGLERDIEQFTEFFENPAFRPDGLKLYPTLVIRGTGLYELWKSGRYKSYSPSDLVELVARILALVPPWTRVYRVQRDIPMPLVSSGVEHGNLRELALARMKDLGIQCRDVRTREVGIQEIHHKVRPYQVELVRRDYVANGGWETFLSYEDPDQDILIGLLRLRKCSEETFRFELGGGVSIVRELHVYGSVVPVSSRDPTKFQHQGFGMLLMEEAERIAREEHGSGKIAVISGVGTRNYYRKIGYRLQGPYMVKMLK
# T1 sequence (O95163 1-1332 partner): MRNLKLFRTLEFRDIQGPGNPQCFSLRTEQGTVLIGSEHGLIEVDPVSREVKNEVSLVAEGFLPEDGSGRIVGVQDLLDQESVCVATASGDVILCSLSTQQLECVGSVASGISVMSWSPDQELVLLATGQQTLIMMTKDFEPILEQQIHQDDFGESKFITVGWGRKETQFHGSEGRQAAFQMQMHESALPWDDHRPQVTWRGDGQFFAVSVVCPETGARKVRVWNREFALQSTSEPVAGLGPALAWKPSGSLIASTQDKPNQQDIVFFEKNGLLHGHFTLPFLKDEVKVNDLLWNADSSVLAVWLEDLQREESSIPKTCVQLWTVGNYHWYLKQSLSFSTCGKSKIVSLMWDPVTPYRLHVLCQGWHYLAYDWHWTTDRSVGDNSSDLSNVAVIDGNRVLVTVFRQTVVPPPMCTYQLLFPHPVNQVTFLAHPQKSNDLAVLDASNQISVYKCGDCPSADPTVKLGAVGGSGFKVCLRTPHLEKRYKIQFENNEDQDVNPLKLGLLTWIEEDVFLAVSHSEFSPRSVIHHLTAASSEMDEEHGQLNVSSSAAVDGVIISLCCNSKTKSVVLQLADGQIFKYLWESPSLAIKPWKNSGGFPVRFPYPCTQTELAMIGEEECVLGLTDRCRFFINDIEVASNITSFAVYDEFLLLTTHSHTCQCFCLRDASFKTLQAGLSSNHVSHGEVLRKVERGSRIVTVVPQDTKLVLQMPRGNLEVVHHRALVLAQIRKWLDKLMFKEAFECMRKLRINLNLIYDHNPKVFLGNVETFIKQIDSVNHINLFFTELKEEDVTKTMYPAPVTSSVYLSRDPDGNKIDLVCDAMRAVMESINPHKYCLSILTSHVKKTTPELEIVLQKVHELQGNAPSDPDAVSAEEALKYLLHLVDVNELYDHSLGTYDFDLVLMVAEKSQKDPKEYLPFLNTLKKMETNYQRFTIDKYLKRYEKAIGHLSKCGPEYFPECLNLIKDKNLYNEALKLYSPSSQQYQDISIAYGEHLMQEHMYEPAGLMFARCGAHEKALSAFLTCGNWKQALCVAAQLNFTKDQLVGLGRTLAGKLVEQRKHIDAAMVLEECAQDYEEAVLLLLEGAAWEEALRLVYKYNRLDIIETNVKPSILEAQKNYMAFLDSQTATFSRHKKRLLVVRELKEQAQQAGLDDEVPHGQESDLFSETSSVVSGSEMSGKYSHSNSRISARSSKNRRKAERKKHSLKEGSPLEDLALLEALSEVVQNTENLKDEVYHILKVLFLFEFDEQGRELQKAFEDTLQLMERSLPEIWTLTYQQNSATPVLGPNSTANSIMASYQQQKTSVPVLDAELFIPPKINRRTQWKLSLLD
# T1 sequence (Q6IA86 1-826 partner): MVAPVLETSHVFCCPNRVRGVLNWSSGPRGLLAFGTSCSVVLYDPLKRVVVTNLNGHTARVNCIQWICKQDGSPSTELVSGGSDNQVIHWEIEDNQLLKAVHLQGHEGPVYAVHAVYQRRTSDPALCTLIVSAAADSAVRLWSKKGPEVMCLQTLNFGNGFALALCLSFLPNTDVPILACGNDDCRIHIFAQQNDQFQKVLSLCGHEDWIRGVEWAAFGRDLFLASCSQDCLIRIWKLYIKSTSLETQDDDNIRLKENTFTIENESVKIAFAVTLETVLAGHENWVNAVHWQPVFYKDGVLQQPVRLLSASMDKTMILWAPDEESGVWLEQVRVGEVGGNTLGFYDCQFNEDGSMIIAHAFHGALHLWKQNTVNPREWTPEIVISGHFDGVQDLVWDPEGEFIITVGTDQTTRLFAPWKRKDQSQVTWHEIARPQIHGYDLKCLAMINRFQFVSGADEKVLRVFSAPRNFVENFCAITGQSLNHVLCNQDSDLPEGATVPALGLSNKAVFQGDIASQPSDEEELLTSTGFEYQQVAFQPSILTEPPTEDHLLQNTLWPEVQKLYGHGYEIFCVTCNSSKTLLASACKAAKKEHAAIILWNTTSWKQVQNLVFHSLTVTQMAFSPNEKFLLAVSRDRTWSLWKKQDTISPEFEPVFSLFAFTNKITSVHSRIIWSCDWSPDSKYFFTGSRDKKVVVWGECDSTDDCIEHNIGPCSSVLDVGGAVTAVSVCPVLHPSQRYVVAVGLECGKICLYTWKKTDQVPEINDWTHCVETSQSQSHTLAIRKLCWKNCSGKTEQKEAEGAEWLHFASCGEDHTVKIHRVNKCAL
# B1: tRNAGlnUUG (structured_RNA)
# RNA: GGCCCCAUGGUGUAAUGGUUAGCACUCUGGACUUUGAAUCCAGCGAUCCGAGUUCAAAUCUCGGUGGGACCUCCA
# How the values were obtained:
# human ELP123 = target: T1, human ELP123; test: cryo-EM structure ([…] Å); type: binding; conditions: with tRNA-GlnUUG and SAM; KAT domain of ELP3; pH 7.5; hydrolysis induced by tRNA
# ELP1;ELP2;ELP3 R242K = ELP1;ELP2;ELP3 R242K (Homo sapiens;Homo sapiens;Homo sapiens, UniProt O95163;Q6IA86;Q9H9T3 1-1332;1-826;1-547, ||R242K); test: MST; MST: 20 mM HEPES pH 7.5, 100 mM NaCl, 5 mM DTT, 0.05% Tween 20; incubated at 4 C 30 min, measured at 25 C; Cy5-tRNA 14 or 30 nM. Cryo-EM: 20 mM HEPES pH 7.5, 100 mM NaCl, 2 mM MgCl2, 2 mM DTT; conditions: protein: recombinant;recombinant;recombinant; tags: ;;C-terminal Twin-Strep-Tag; chain copies: 2;2;2; label: internal Cy5 (5% Cy5-CTP) for MST; tRNA fold
# ELP1;ELP2;ELP3 K164A = ELP1;ELP2;ELP3 K164A (Homo sapiens;Homo sapiens;Homo sapiens, UniProt O95163;Q6IA86;Q9H9T3 1-1332;1-826;1-547, ||K164A); test: as above; conditions: protein: recombinant;recombinant;recombinant; tags: ;;C-terminal Twin-Strep-Tag; chain copies: 2;2;2; label: internal Cy5 (5% Cy5-CTP) for MST; tRNA fold
# ELP1;ELP2;ELP3 R402T = ELP1;ELP2;ELP3 R402T (Homo sapiens;Homo sapiens;Homo sapiens, UniProt O95163;Q6IA86;Q9H9T3 1-1332;1-826;1-547, ||R402T); test: as above; conditions: protein: recombinant;recombinant;recombinant; tags: ;;C-terminal Twin-Strep-Tag; chain copies: 2;2;2; label: internal Cy5 (5% Cy5-CTP) for MST; tRNA fold
# ELP1;ELP2;ELP3 E474A = ELP1;ELP2;ELP3 E474A (Homo sapiens;Homo sapiens;Homo sapiens, UniProt O95163;Q6IA86;Q9H9T3 1-1332;1-826;1-547, ||E474A); test: as above; conditions: protein: recombinant;recombinant;recombinant; tags: ;;C-terminal Twin-Strep-Tag; chain copies: 2;2;2; label: internal Cy5 (5% Cy5-CTP) for MST; tRNA fold
# [1] = target: ELP1;ELP2;ELP3 Y529A/Y530A (Homo sapiens;Homo sapiens;Homo sapiens, UniProt O95163;Q6IA86;Q9H9T3 1-1332;1-826;1-547, ||Y529A;Y530A); test: as above; conditions: protein: recombinant;recombinant;recombinant; tags: ;;C-terminal Twin-Strep-Tag; chain copies: 2;2;2; label: internal Cy5 (5% Cy5-CTP) for MST; tRNA fold
# ELP1;ELP2;ELP3 H476A = ELP1;ELP2;ELP3 H476A (Homo sapiens;Homo sapiens;Homo sapiens, UniProt O95163;Q6IA86;Q9H9T3 1-1332;1-826;1-547, ||H476A); test: as above; conditions: protein: recombinant;recombinant;recombinant; tags: ;;C-terminal Twin-Strep-Tag; chain copies: 2;2;2; label: internal Cy5 (5% Cy5-CTP) for MST; tRNA fold
# ELP1;ELP2;ELP3 K280A = ELP1;ELP2;ELP3 K280A (Homo sapiens;Homo sapiens;Homo sapiens, UniProt O95163;Q6IA86;Q9H9T3 1-1332;1-826;1-547, ||K280A); test: as above; conditions: protein: recombinant;recombinant;recombinant; tags: ;;C-terminal Twin-Strep-Tag; chain copies: 2;2;2; label: internal Cy5 (5% Cy5-CTP) for MST; tRNA fold
# ELP1;ELP2;ELP3 Y363A = ELP1;ELP2;ELP3 Y363A (Homo sapiens;Homo sapiens;Homo sapiens, UniProt O95163;Q6IA86;Q9H9T3 1-1332;1-826;1-547, ||Y363A); test: as above; conditions: protein: recombinant;recombinant;recombinant; tags: ;;C-terminal Twin-Strep-Tag; chain copies: 2;2;2; label: internal Cy5 (5% Cy5-CTP) for MST; tRNA fold
# ELP1;ELP2;ELP3 wild type = ELP1;ELP2;ELP3 wild type (Homo sapiens;Homo sapiens;Homo sapiens, UniProt O95163;Q6IA86;Q9H9T3 1-1332;1-826;1-547, ||); test: as above; conditions: protein: recombinant;recombinant;recombinant; tags: ;;C-terminal Twin-Strep-Tag; chain copies: 2;2;2; label: internal Cy5 (5% Cy5-CTP) for MST; tRNA fold
# Chain of ELP1;ELP2;ELP3 Y529A/Y530A (Q9H9T3 whole entry Y529A/Y530A, chain 3 of 3, one chain of several): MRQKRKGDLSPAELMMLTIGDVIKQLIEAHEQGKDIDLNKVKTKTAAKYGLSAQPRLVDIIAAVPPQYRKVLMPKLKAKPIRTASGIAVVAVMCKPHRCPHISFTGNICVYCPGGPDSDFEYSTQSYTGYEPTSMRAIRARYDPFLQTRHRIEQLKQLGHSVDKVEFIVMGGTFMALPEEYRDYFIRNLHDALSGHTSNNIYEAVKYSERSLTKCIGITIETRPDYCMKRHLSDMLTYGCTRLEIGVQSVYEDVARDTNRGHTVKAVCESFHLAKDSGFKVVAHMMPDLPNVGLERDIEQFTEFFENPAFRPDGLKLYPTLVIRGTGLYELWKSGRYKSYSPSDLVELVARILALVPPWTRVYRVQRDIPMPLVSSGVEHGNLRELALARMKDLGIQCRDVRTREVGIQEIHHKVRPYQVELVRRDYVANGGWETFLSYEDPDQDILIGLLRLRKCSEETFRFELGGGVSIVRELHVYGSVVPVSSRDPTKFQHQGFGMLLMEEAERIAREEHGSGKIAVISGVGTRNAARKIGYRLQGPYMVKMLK
Molecule,cryo-EM structure (2.87 Å) (human ELP123),binding result (ELP1;ELP2;ELP3 R242K),binding result (ELP1;ELP2;ELP3 K164A),binding result (ELP1;ELP2;ELP3 R402T),binding result (ELP1;ELP2;ELP3 E474A),Kd [1] [nM],binding result (ELP1;ELP2;ELP3 H476A),binding result (ELP1;ELP2;ELP3 K280A),binding result (ELP1;ELP2;ELP3 Y363A),Kd (ELP1;ELP2;ELP3 wild type) [nM]
CC(=O)SCCNC(=O)CCNC(=O)[C@H](O)C(C)(C)COP(=O)(O)OP(=O)(O)OC[C@H]1O[C@@H](n2cnc3c(N)ncnc32)[C@H](O)[C@@H]1OP(=O)(O)O [acetyl-CoA],well-resolved ligand density that unambiguously fits a complete acetyl-CoA molecule,,,,,,,,,
B1,,binds,binds,binds,binds,94.7 ± 5.2,binds,binds,binds,37.6 ± 5.3
